# Laboratory results taken from publication PMC5896933 (Molecular Biology of the Cell, 2018).
# T1: HA-tagged Ddi1^Δ202-299 (yeast, UniProt P40087 1-428, Δ202-299)
# T1 sequence (looked up): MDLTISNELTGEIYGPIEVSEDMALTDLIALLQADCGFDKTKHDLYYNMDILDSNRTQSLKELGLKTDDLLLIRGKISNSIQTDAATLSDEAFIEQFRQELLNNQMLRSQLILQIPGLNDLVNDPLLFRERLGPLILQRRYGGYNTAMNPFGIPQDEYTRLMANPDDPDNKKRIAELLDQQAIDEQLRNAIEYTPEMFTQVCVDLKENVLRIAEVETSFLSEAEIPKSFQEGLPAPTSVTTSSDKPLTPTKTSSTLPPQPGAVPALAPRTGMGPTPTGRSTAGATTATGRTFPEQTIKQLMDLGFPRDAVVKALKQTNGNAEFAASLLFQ
# Target: T1, HA-tagged Ddi1^Δ202-299
# Experiment: co-IP
binder,measurement,value
"Cdc48-GFP (natural protein, yeast, UniProt P25694 1-835, looked up) MGEEHKPLLDASGVDPREEDKTATAILRRKKKDNMLLVDDAINDDNSVIAINSNTMDKLELFRGDTVLVKGKKRKDTVLIVLIDDELEDGACRINRVVRNNLRIRLGDLVTIHPCPDIKYATRISVLPIADTIEGITGNLFDVFLKPYFVEAYRPVRKGDHFVVRGGMRQVEFKVVDVEPEEYAVVAQDTIIHWEGEPINREDEENNMNEVGYDDIGGCRKQMAQIREMVELPLRHPQLFKAIGIKPPRGVLMYGPPGTGKTLMARAVANETGAFFFLINGPEVMSKMAGESESNLRKAFEEAEKNAPAIIFIDEIDSIAPKRDKTNGEVERRVVSQLLTLMDGMKARSNVVVIAATNRPNSIDPALRRFGRFDREVDIGIPDATGRLEVLRIHTKNMKLADDVDLEALAAETHGYVGADIASLCSEAAMQQIREKMDLIDLDEDEIDAEVLDSLGVTMDNFRFALGNSNPSALRETVVESVNVTWDDVGGLDEIKEELKETVEYPVLHPDQYTKFGLSPSKGVLFYGPPGTGKTLLAKAVATEVSANFISVKGPELLSMWYGESESNIRDIFDKARAAAPTVVFLDELDSIAKARGGSLGDAGGASDRVVNQLLTEMDGMNAKKNVFVIGATNRPDQIDPAILRPGRLDQLIYVPLPDENARLSILNAQLRKTPLEPGLELTAIAKATQGFSGADLLYIVQRAAKYAIKDSIEAHRQHEAEKEVKVEGEDVEMTDEGAKAEQEPEVDPVPYITKEHFAEAMKTAKRSVSDAELRRYEAYSQQMKASRGQFSNFNFNDAPLGTTATDNANSNNSAPSGAGAAFGSNAEEDDDLYS","fold more Cdc48 bound, normalized for the amount of precipitated Ddi1^Δ202-299",2.1 fold
